# From PMC10185304, “Structure of Anabaena flos-aquae gas vesicles revealed by cryo-ET” (Structure (London, England : 1993), 2023)
# B1: GvpA from Anabaena flos-aquae (Ana) gas vesicles (natural protein, UniProt P10397 1-71, looked up)
# chain: MAVEKTNSSSSLAEVIDRILDKGIVIDAWVRVSLVGIELLAIEARIVIASVETYLKYAEAVGLTQSAAVPA
# notes: Gas vesicle structural protein GvpA (~8 kDa), Anabaena flos-aquae (Dolichospermum flos-aquae strain 1403/13F); polymerised into the helical filament that forms the gas vesicle shell; Native protein as it stands in purified gas vesicles; also called Ana GvpA; major structural protein; source: endogenous, in gas vesicles isolated from Anabaena flos-aquae by buoyancy purification
# B2: GvpC from Anabaena flos-aquae (Ana) gas vesicles (natural protein, UniProt P09413 1-193, looked up)
# chain: MISLMAKIRQEHQSIAEKVAELSLETREFLSVTTAKRQEQAEKQAQELQAFYKDLQETSQQFLSETAQARIAQAEKQAQELLAFHKELQETSQQFLSATAQARIAQAEKQAQELLAFYQEVRETSQQFLSATAQARIAQAEKQAQELLAFHKELQETSQQFLSATADARTAQAKEQKESLLKFRQDLFVSIFG
# notes: Gas vesicle protein GvpC, Anabaena flos-aquae (Dolichospermum flos-aquae strain 1403/13F); five 33-residue repeats plus short N and C termini; in PDB 8GBS it is modelled only as a poly-Ala chain of one repeat's length; removed with 6 M urea to give stripped (AnaS) vesicles; also called Ana GvpC; accessory protein GvpC; source: endogenous, in native gas vesicles isolated from Anabaena flos-aquae …
# Tests used:
# Assay in all cases: cryo-EM structure; cryo-electron tomography with subtomogram averaging of the shell of native Ana gas vesicles (7.7 Å) and of urea-stripped AnaS gas vesicles (7.3 Å), 10 mM HEPES pH 7.5; GvpA homology model (from PDB 7R1C) and a poly-Ala helix for GvpC fitted as rigid bodies
# [1] = biological target: B2; settings: both partners purified
# [2] = biological target: the molecule itself
# [3] = biological target: B1; settings: both partners purified
Binder,binding result [1],binding result [2],stoichiometry N [3]
B1,binds,binds,–
B2,–,–,~0.05 GvpC per GvpA
